The values below come from article PMC11263391, “Molecular insights into degron recognition by CRL5^ASB7 ubiquitin ligase” (Nature Communications, 2024).

Broadly, the Kd is the free concentration of one partner at which half of the binding sites on the other are occupied at equilibrium, for simple one-to-one binding.

The test has as its target ASB7-Elongin B-Elongin C ternary complex (human), Q9H672. The experiment in a line: ITC; peptide (0.8–4 mM) titrated into the ASB7 complex (39–156 µM); 16 °C; 20 mM Tris-HCl pH 7.5, 150 mM NaCl; MicroCal PEAQ-ITC. In general terms: Isothermal titration calorimetry measures the heat released or taken up as one component is titrated into another.

Sequence of ASB7-Elongin B-Elongin C ternary complex (human), Q9H672 (Q9H672 11-318, chain 1 of 3): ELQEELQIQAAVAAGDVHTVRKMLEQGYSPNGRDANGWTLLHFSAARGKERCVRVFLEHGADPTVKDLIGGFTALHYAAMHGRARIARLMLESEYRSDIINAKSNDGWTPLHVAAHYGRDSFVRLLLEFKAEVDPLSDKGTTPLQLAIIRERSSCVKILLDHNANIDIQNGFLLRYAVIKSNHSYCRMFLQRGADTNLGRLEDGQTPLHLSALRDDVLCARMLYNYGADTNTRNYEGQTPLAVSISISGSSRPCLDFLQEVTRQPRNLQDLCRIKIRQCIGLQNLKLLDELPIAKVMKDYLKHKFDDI
Sequence of ASB7-Elongin B-Elongin C ternary complex (human), Q9H672 (Q15370 1-104, chain 2 of 3, further chain): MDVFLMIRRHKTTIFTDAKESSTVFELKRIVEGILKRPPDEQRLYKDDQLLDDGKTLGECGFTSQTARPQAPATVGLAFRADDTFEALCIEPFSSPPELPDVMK
Sequence of ASB7-Elongin B-Elongin C ternary complex (human), Q9H672 (Q15369 17-112, chain 3 of 3, further chain): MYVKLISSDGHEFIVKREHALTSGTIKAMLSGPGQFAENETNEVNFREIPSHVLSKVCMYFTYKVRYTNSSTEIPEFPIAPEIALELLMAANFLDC

B1: LZTS1 17-residue degron (peptide)
chain: ELESLMKEQDLLETKLR
modifications: not checked
As to B1, the fold decrease in binding affinity against the LZTS1-degron came out at 6 fold.

B2: CEP152-degron 23-residue peptide (peptide)
chain: ELEKAKQECQDLKGKLEKCCRH
modifications: not checked
Molecule B2 returned a Kd of 3.8 µM.
